This passage reports luciferase reporter activation over basal (two-hybrid) results from publication PMC3163069.

Where two headings read alike, the source gives them in different places.

Assay [1] addresses Id (pBIND-Id, fusion with the DNA-binding domain of yeast gal4). Put plainly: two-hybrid.
The target is the same in assay [2]. Put plainly: two-hybrid. This is another data set of the same source.

As to “MyoD (pACT-MyoD, fusion with the VP16 transactivation domain of herpes simplex virus) (natural protein)”, the figures for the luciferase reporter activation over basal (two-hybrid) in assay [1] and in assay [2] were 70 fold and 10 fold, respectively.
